Assay [1] is described as follows: Retention of perhydrolase on hydroxyapatite (SDS-PAGE band strength). It is filed as binding. Conditions: for Unbound (relative band strength): 10 μM enzyme, 0.5% hydroxyapatite, pH 7.2; for Unbound (relative band strength) / HAP Particles (relative band strength) / Wash1 (relative band strength) / Wash2 (relative band strength): relative to enzyme input = 1; for HAP Particles (relative band strength): enzyme retained on particles after washes. In a few lines:
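Enzyme at 10 μM final was incubated 30 min with 0.5% hydroxyapatite nanoparticles in 10 mM phosphate pH 7.2, then centrifuged and washed three times. Input, wash supernatants and particles were run on SDS-PAGE with Coomassie-type staining; band strength scored relative to input (=1).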

The nature of assay [2]: Perhydrolase activity in solution, ABTS detection of peracetic acid (Example 7). The settings on record: 10 μL of 0.625 μg/mL enzyme, triacetin, H2O2, pH 7.2, 5 min. It is filed as biochemical. How it is done: (§1) The detection of peracetic acid followed the method described in Pinkernell et. al. (Analyst, 1997, 122, 567) using colorimetric detection of 2,2′-azino-bis(3-ethylbenzothiazoline(-6-sulfonate (ABTS) oxidation by peracetic acid. Following the formation of peracetic acid with the addition of triacetin and hydrogen peroxide, 90 μL of solution was added to 10 μL of 0.1 M H3PO4 in a well plate. 50 μL of 1 M acetic acid, 50 μL of 0.5 g/L ABTS and 50 μL of 0.002 g/L of KI was added. The solution was allowed to develop for 5 min. The absorbance of the solution was measured at 405 nm using a microplate reader. The peracetic acid concentration was calculated based on a standard curve developed simultaneously using peracetic acid reagent solution.
The enzyme activity in solution was measured by making a solution of 0.625 μg/mL of each enzyme in 50 mM phosphate buffer, pH 7.2. 10 μL of enzyme solution was mixed with 90 μL buffer, 30 μL of 3% triacetin in water, 30 μL of 30 mM H2O2. The solution was incubated for 5 min. A 90 μL aliquot was removed for detection via ABTS oxidation as noted above.

Assay [3] in a line: Perhydrolase activity of enzyme bound to hydroxyapatite discs, ABTS (Example 7). The settings on record: for Avg Absorbance Background subtract: background = no enzyme, no HAP (0.775); for Avg Absorbance at 5 min: discs incubated in 20 μM enzyme, 6 washes, 0.346% triacetin, 3.46 mM H2O2, A405; for PAA conc μM per disc: enzyme bound to hydroxyapatite disc, 5 min, no enzyme control 1.2. It is filed as biochemical. On the procedure: as §1
The perhydrolase activity of the fusions once bound to HAP discs surfaces was determined with the same ABTS method. Hydroxyapatite discs (HiMed Inc, Old Bethpage, N.Y.; 5 mm dia.×1.8 mm thick) were incubated in 20 μM enzyme solution (50 mM potassium phosphate buffer pH 7.2) for 60 min followed by 6 times of washes (50 mM potassium phosphate buffer pH 7.2). The discs with enzyme adsorbed were transferred to new wells and 200 μL of phosphate buffer (10 mM pH 7.2), 30 μL of 3% triacetin (final concentration of 0.346%) and 30 μL of 30 mM H2O2 (final concentration of 3.46 mM) were added. The solution was allowed to incubate at room temperature for 5 min. 90 μL of solution was pipetted to a new well containing 10 μL of 100 mM H3PO4. 50 μL of acetic acid, 50 μL KI, 50 μL ABTS were added as described above. The solution was developed for 5 min at room temperature and read at A405 nm.

A short description of assay [4]: T. maritima C277S/C277T constructs, peracetic acid in solution (Example 11). The assay is classed as biochemical. The settings on record: 0.5 μM enzyme, 100 mM triacetin, 100 mM H2O2, pH 7.2, 10 min, 37° C.; no enzyme 114. How it is done: as §1
Perhydrolase enzymes listed in Table 5 were assessed for enzyme activity in solution as described in Example 7. The enzyme activity in solution was measured by making a 500 μl solution of 0.5 μM of each enzyme in 100 mM triacetin, 100 mM H2O2 and 10 mM phosphate buffer, pH 7.2. The solution was incubated for 10 min, at 37° C. After the reaction was stopped by mixing an aliquot with H3PO4, a 10 μL aliquot was removed for proper dilution, and then detected via ABTS oxidation as described in Example 7.

Assay [5] can be described thus: T. maritima C277S/C277T constructs, peracetic acid when bound to bovine enamel (Example 11). The assay is classed as biochemical. The settings on record: bovine enamel exposed to 10 μM enzyme, 4 washes; 100 mM triacetin, 100 mM H2O2, 30 min, 37° C.; no enzyme 570. How it is done:
as §1
The perhydrolase enzymes were also assessed for binding to bovine enamel substrates. Enamel substrates were prepared as described in Example 2 and 3. Each enamel block was hydrated in water for overnight at room temperature (˜22° C.). The enamel blocks were then equilibrated with 10 mM potassium phosphate buffer, pH7.2, for 10 min. The enamel substrates were rinsed 3 times the buffer. The enamel wells were filled with 500 μL of 10 μM enzyme solutions which was prepared by diluting in 10 mM phosphate buffer. The samples were incubated for 30 min with slow shaking at 37° C. The non-binding enzyme was removed by washing 4 times with phosphate buffer. Then, each enamel block was embedded inside a putty filled 24-well plate, with only the enamel top surface exposed. The perhydrolase activity from enamel bound enzyme was measured as described in Example 8. 100 μL reaction mixtures (100 mM phosphate buffer, pH7.2 and 100 mM H2O2 and 100 mM triacetin) was added on top of the enamel and incubated for 30 min at 37° C. A 90 μL aliquot was removed for detection via ABTS oxidation as noted in Example 8. Each sample data point represents an average of 3 independent enamel blocks.

Assay [6] in a line: Maximum peracetic acid by targeted and untargeted CE-7 perhydrolase with propylene glycol diacetate. It is filed as biochemical. Conditions: substrate propylene glycol diacetate; same reaction conditions as Table 20. On the procedure:
(§2) These ester substrates were tested for peracetic acid production using a targeted C277S perhydrolase variant, EZ-7 under the same reaction conditions used to generate date for Table 20. Peracetic acid production using propylene glycol diacetate or sucrose octaacetate with the EZ-7 perhydrolase system is shown in Table 21.

Assay [7] in a line: Maximum peracetic acid by targeted and untargeted CE-7 perhydrolase with sucrose octaacetate. The assay is classed as biochemical. The settings on record: substrate sucrose octaacetate; same reaction conditions as Table 20. How it is done: as §2
A short description of assay [8]: Peracetic acid generated after each round of two-step whitening, ABTS (Example 17). It is filed as biochemical, bovine. Conditions: for PAA (ppm) generated after each round of whitening, Rd2: round 2; for PAA (ppm) generated after each round of whitening, Rd3: round 3; for PAA (ppm) generated after each round of whitening, Rd4: round 4; for PAA (ppm) generated after each round of whitening, Rd5: round 5; for PAA (ppm) generated after each round of whitening, Rd1: step 1 enzyme or buffer, step 2 triacetin/H2O2, round 1. How it is done: The samples were diluted 1:100 with 100 mM phosphate buffer and added to ABTS detection reagent as noted in Example 8. Each sample data point represents 2 repeats of independent enamel blocks.

B1: EZ-1: Thermotoga maritima acetyl xylan esterase variant C277S, untargeted perhydrolase, SEQ ID NO: 424 (protein, listed as Thermotoga maritima)
chain: MAFFDLPLEELKKYRPERYEEKDFDEFWEETLAESEKFPLDPVFERMESHLKTVEAYDVTFSGYRGQRIKGWLLVPKLEEEKLPCVVQYIGYNGGRGFPHDWLFWPSMGYICFVMDTRGQGSGWLKGDTPDYPEGPVDPQYPGFMTRGILDPRTYYYRRVFTDAVRAVEAAASFPQVDQERIVIAGGSQGGGIALAVSALSKKAKALLCDVPFLCHFRRAVQLVDTHPYAEITNFLKTHRDKEEIVFRTLSYFDGVNFAARAKIPALFSVGLMDNISPPSTVFAAYNYYAGPKEIRIYPYNNHEGGGSFQAVEQVKFLKKLFEKG
Regarding B1, in assay [1], the “Unbound (relative band strength)” value is listed as 0.98, the “HAP Particles (relative band strength)” value is listed as 0.01, the “Wash1 (relative band strength)” value is recorded as 0.01 and the “Wash2 (relative band strength)” value is recorded as 0.0. In assay [1] (after washes), the “binding to / retention on hydroxyapatite (in words)” value is listed as “does not bind to hydroxyapatite”. Further, in assay [2], the “Avg Absorbance 405 nm Background subtracted” value is 1.830. Besides, in assay [3], the “Avg Absorbance Background subtract” value amounted to 0.126, the “Avg Absorbance at 5 min” value is reported as 0.901 and the “PAA conc μM per disc” value was 3.5 μM per disc. The “Peracetic acid (ppm) In Solution” value in assay [4] came to 4270 ppm. The “Peracetic acid (ppm) On Enamel” value in assay [5] is recorded as 628 ppm. Besides, the “Maximum Peracetic Acid (ppm), Propylene glycol diacetate” value in assay [6] is reported as 2165 ppm. Also, in assay [7], the “Maximum Peracetic Acid (ppm), Sucrose octaacetate” value is on record as 2768 ppm. Further, in assay [8], the “PAA (ppm) generated after each round of whitening, Rd2” value is 41.0 ppm; the “PAA (ppm) generated after each round of whitening, Rd3” value was 30.2 ppm; the “PAA (ppm) generated after each round of whitening, Rd4” value amounted to 39.3 ppm; the “PAA (ppm) generated after each round of whitening, Rd5” value worked out at 47.1 ppm. In addition, the “PAA (ppm) generated after each round of whitening, Rd1” value in assay [8] is 33.2 ppm.

B2: EZ-7: C277S-link1-DenP308-H6, SEQ ID NO: 429 (protein)
chain: MAFFDLPLEELKKYRPERYEEKDFDEFWEETLAESEKFPLDPVFERMESHLKTVEAYDVTFSGYRGQRIKGWLLVPKLEEEKLPCVVQYIGYNGGRGFPHDWLFWPSMGYICFVMDTRGQGSGWLKGDTPDYPEGPVDPQYPGFMTRGILDPRTYYYRRVFTDAVRAVEAAASFPQVDQERIVIAGGSQGGGIALAVSALSKKAKALLCDVPFLCHFRRAVQLVDTHPYAEITNFLKTHRDKEEIVFRTLSYFDGVNFAARAKIPALFSVGLMDNISPPSTVFAAYNYYAGPKEIRIYPYNNHEGGGSFQAVEQVKFLKKLFEKGGPGSGGAGSPGSAGGPGSTKPPRTPTANTSRPHHNFGSGGGGSPHHHHHH
Turning to B2, in assay [1], the “Unbound (relative band strength)” value came to 0.5, the “HAP Particles (relative band strength)” value was 0.5, the “Wash1 (relative band strength)” value is 0.01 and the “Wash2 (relative band strength)” value was 0.0. For the same molecule, the “Avg Absorbance 405 nm Background subtracted” value in assay [2] amounted to 1.619. For the same molecule, in assay [3], the “Avg Absorbance Background subtract” value was found to be 1.450, the “Avg Absorbance at 5 min” value worked out at 1.45 and the “PAA conc μM per disc” value was 23.5 μM per disc. The “activity when bound to hydroxyapatite (in words)” value in assay [3] (with addition of triacetin and hydrogen peroxide) is listed as “active enzymes when bound to hydroxyapatite”. The “Peracetic acid (ppm) In Solution” value in assay [4] came out at 5519 ppm. In assay [5], the “Peracetic acid (ppm) On Enamel” value is listed as 1040 ppm. Further, the “Maximum Peracetic Acid (ppm), Propylene glycol diacetate” value in assay [6] is listed as 2109 ppm. The “Maximum Peracetic Acid (ppm), Sucrose octaacetate” value in assay [7] turned out to be 2070 ppm. In addition, in assay [8], the “PAA (ppm) generated after each round of whitening, Rd2” value turned out to be 496.7 ppm; the “PAA (ppm) generated after each round of whitening, Rd3” value is 716.5 ppm; the “PAA (ppm) generated after each round of whitening, Rd4” value was 998.5 ppm; the “PAA (ppm) generated after each round of whitening, Rd5” value was determined as 1224.5 ppm. Also, in assay [8], the “PAA (ppm) generated after each round of whitening, Rd1” value is given as 383.5 ppm.

Source of the values: patent publication US8663616B2, “Enzymatic peracid generation for use in oral care products” (E I du Pont de Nemours and Company, priority 2010, dated 2014).
